Measured values reported in paper PMC6749330, “Novel Peptide NIRF Optical Surgical Navigation Agents for HNSCC” (Molecules, 2019).
Where a SMILES comes first, the peptide text is derived from it. The star is where a group is joined. IRDye800CW = CC1(C)C(/C=C/C2=C(Oc3ccc(S(=O)(=O)O)cc3)C(=C/C=C3/N(CCCCS(=O)(=O)O)c4ccc(S(=O)(=O)O)cc4C3(C)C)/CCC2)=[N+](CCCCCC(=O)*)c2ccc(S(=O)(=O)[O-])cc21

Assays:
In vitro serum stability = settings: nu/nu, mouse
[1] = HPLC Rt as measure of relative lipophilicity; settings: chromatographic, C18 RP (XBridge 150 × 4.6 mm, 3.5 μm), water/ACN 0.1% TFA, 20 to 50% ACN up to 10 min, 50 to 70% from 10 to 30 min, 1 mL/min, NIRF detection
[2] = system: FBS (fetal bovine serum) proteins; assay: FBS protein binding assay; settings: 25 μM in 100% FBS, room temperature 30 s, Amicon 10 K cutoff, 12,000 g 15 min, fluorescence, p < 0.05
Description: FBS protein binding assay. […] The concentration was chosen as the maximum expected in blood from an intravenous imaging dose of 40 nmol in a 20 g mouse, with a blood factor of 0.078 [40, 41]. Solutions (300 μL) were then loaded into an Amicon unit (0.5 mL, 10 K cutoff) and centrifuged at 12,000× g for 15 min [28]. Samples from the filtrate (50 μL), residual (5 μL), and original solution (5 μL) were loaded in duplicate into black wall 96-well plates containing 50 (for filtrate) or 95 (for residual and original) μL of PBS with 0.2% BSA. For an additional wash, 300 μL of PBS was then added into the Amicon unit. The unit was centrifuged as above. The same amounts of each of the parts were loaded into wells. Fluorescence intensity for each fraction was calculated by fraction volume × fluorescent unit/μL. Single factor ANOVA was used to analyze the data with p < 0.05 considered significant.

Cal 27 cells = assay: Fluorescence microscopy assay on Cal 27 cells; format: cell-based, Human; settings: 10 μM, 1 h and 24 h incubations, 37 °C, 800 nm emission
Description: Fluorescence microscopy assays. Cal 27 cells were seeded at 70,000/well in duplicate on eight-well chamber slides and allowed to attach overnight. Cell culture medium was replaced with 200 μL medium containing 10 μM peptides. Cells were incubated at 37 °C for 1–24 h followed by washing four times with 300 μL of HEPES buffer (25 mM HEPES 150 mM NaCl at pH 7.4) and once with the buffer containing 1 μg/mL DAPI. The chamber slide scaffold was then removed. Each chamber was then covered by a drop of aqua-poly mount and a coverslip, and sealed with clear nail polish. Cells were imaged with an Olympus IX81 microscope using an 800 nm emission filter set for IRDye800 conjugates and 461 nm for DAPI. Images were captured at 800 nm (red) for 5 s and at 461 nm (blue) with the automatic settings, at 200×. […]
the measured fluorescence.
The ratio of uptake at 2 h drops to about 13. Note:
Figure 2 data are normalized to fHN-1-IR800 that was run adjacent to each of the hybrid-peptides. f-HN1- […]
vertical scale magnitude of 4IphfHN17-IR800 between Figure 2 at ~4.5 and Figure S3 at ~13.
Figure S4.Fluorescence microscopy of 1 h and 24 h incubations of 10 µM IR800-labeled hybrid-peptides in […]
Cal 27 cells. […] HN1-IR800, HNJ-
Figure S5. Blood clearance of hybrid-peptide molecules from normal mice as described in Materials and Methods. […]

CC[C@H](C)[C@H](NC(=O)[C@H](CC(N)=O)NC(=O)[C@H](CC(C)C)NC(=O)[C@@H]1CCCN1C(=O)[C@H](CO)NC(=O)[C@@H](N)[C@@H](C)O)C(=O)N[C@@H](Cc1c[nH]cn1)C(=O)N[C@@H](CC(N)=O)C(=O)NCC(=O)N[C@@H](CCC(N)=O)C(=O)N[C@@H](CCCCNC(=O)CCCCC[N+]1=C(/C=C/C2=C(Oc3ccc(S(=O)(=O)O)cc3)C(=C/C=C3/N(CCCCS(=O)(=O)O)c4ccc(S(=O)(=O)O)cc4C3(C)C)/CCC2)C(C)(C)c2cc(S(=O)(=O)[O-])ccc21)C(=O)N[C@@H](CC(C)C)C(N)=O [HN1-IR800] (H-TSPLNIHNGQK(IRDye800CW)L-NH2)
half-life at 6.4 μM (In vitro serum stability): 50.4 min | HPLC Rt (relative lipophilicity) [1]: 7.31 min | peptide bound to FBS proteins [2]: ~52%

CC1(C)C(/C=C/C2=C(Oc3ccc(S(=O)(=O)O)cc3)C(=C/C=C3/N(CCCCS(=O)(=O)O)c4ccc(S(=O)(=O)[O-])cc4C3(C)C)/CCC2)=[N+](CCCCCC(=O)O)c2ccc(S(=O)(=O)O)cc21 [IR800-COOH]
Uptake in Cal 27 cells by fluorescence microscopy (Cal 27 cells): not observably taken up
